From patent publication US20230174635A1 (UCB, published 2023)

What was measured:
Test in all cases: cell-based or functional assay
mouse Gremlin = target: T1, mouse Gremlin (mouse, UniProt O70326 25-184)
T1 sequence (looked up): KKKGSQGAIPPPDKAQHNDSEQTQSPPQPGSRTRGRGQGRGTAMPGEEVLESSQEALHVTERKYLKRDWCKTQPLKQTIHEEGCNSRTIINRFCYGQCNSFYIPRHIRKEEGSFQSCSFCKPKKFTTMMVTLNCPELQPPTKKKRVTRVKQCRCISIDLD

[1] = target: T2, recombinant human Gremlin-1 (human, UniProt O60565 25-184)
T2 sequence: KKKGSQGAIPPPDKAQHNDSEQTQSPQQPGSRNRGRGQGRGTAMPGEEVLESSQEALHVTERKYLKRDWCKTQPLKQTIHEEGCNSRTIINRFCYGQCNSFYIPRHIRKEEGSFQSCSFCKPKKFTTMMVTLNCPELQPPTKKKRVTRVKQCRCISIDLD

BMP4/7 heterodimer = target: T3, BMP4/7 heterodimer (human, UniProt P12644 293-408; P18075 293-431)
T3 sequence (looked up) 1: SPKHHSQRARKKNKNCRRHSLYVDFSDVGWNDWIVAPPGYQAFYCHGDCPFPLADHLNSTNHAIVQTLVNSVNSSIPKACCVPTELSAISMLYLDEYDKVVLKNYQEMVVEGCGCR
T3 sequence (looked up) 2: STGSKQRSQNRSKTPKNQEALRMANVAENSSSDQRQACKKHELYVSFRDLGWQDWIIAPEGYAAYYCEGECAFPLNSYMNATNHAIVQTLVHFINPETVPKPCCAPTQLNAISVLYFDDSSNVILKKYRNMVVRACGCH

| Binder | IC50, restoration of BMP signalling blocked by mouse Gremlin, HEK-ID1 reporter gene assay (mouse Gremlin) | IC50, restoration of BMP signalling blocked by human Gremlin, HEK-ID1 reporter gene assay [1] | IC50 (geometric mean, N=2), inhibition of BMP4/7 signalling, Hek-Id1 reporter gene assay (BMP4/7 heterodimer) |
| --- | --- | --- | --- |
| Ab7326 (antibody, V domains shown) VH: QVQLVESGAEVKKPGATVKISCKVSGYTFTDYYMHWVQQAPGKGLEWMGLVDPEDGETIYAEKFQGRVTITADTSTDTAYMELSSLRSEDTAVYYCATDARGSGSYYPNHFDYWGQGTLVTVSS VL: not shown | 0.2 nM | 1.3 nM |  |
| truncated human Gremlin-1 with N-terminal 6His-TEV tag (ligand) MGSSHHHHHHSSGENLYFQGSAMPGEEVLESSQEALHVTERKYLKRDWCKTQPLKQTIHEEGCNSRTIINRFCYGQCNSFYIPRHIRKEEGSFQSCSFCKPKKFTTMMVTLNCPELQPPTKKKRVTRVKQCRCISIDLD |  |  | 1.7 nM |
